In article PMC7112440:
Where two headings read alike, the source gives them in different places.

How the values were obtained:
[1] = target: human norovirus HuNoV (GII.4), virus from a positive stool sample (human norovirus GII.4); assay: BLI
[2] = target: human norovirus HuNoV (GII.4), virus from a positive stool sample (human norovirus GII.4); assay: SPR
[3] = target: viral hemorrhagic septicemia virus (VHSV) genotype IVa; assay: SPR
[4] = target: concanavalin A (Con A) isolated from Canavalia ensiformis (Jack bean) (Canavalia ensiformis); assay: capture on a column of Con A-immobilised polyacrylate beads
[5] = target: concanavalin A (Con A) isolated from Canavalia ensiformis (Jack bean) (Canavalia ensiformis); assay: as above; remark: listed apart in the source

Substance	virus recovery (%) [5]	also measured
concanavalin A (Con A) isolated from Canavalia ensiformis (Jack bean) (natural protein)		association, fold over the commercial HuNoV antibody [1]: 10 fold; Kd [2]: 71.5 nM; Kd [3]: 710 nM
human norovirus HuNoV (GII.4), virus from a positive stool sample (complex)	90.6%	HuNoV recovery (%) from lettuce [4]: 89.5%; HuNoV recovery (%) from milk [4]: 60.8%; HuNoV recovery (%) from strawberry [4]: 70.8%; virus recovery (%) [4]: > 90%
human norovirus HuNoV GI.3, virus from a positive stool sample (complex)	68.5%	
human norovirus HuNoV GI.8, virus from a positive stool sample (complex)	56.2%	
human norovirus HuNoV GII.2, virus from a positive stool sample (complex)	85.2%	
human norovirus HuNoV GII.6, virus from a positive stool sample (complex)	41.8%	
human norovirus HuNoV GII.8, virus from a positive stool sample (complex)	77.8%	
human norovirus HuNoV GII.17, virus from a positive stool sample (complex)	61.4%	
